{
  "source": "patent US20140087995A1",
  "about": "(published 2014)",
  "binders": {"B1": {"name": "N^ε1-[2-[2-[2-[[(4S)-4-carboxy-4-(19-carboxynonadecanoylamino)butanoyl]amino]ethoxy]ethoxy]acetyl]-[Arg17,Pro21,Pro27,Arg35]-h-amylin (peptide)", "peptide": "K([AEEA-γGlu-C20 diacid])CNTATCATQRLANFLRHSSPNFGAIPSSTNVGSRTY-NH2", "modifications": "disulfide 2-7; N-terminus assumed", "SMILES": "CC[C@H](C)[C@H](NC(=O)[C@H](C)NC(=O)CNC(=O)[C@H](Cc1ccccc1)NC(=O)[C@H](CC(N)=O)NC(=O)[C@@H]1CCCN1C(=O)[C@H](CO)NC(=O)[C@H](CO)NC(=O)[C@H](Cc1c[nH]cn1)NC(=O)[C@H](CCCNC(=N)N)NC(=O)[C@H](CC(C)C)NC(=O)[C@H](Cc1ccccc1)NC(=O)[C@H](CC(N)=O)NC(=O)[C@H](C)NC(=O)[C@H](CC(C)C)NC(=O)[C@H](CCCNC(=N)N)NC(=O)[C@H](CCC(N)=O)NC(=O)[C@@H](NC(=O)[C@H](C)NC(=O)[C@@H]1CSSC[C@H](NC(=O)[C@@H](N)CCCCNC(=O)COCCOCCNC(=O)CC[C@H](NC(=O)CCCCCCCCCCCCCCCCCCC(=O)O)C(=O)O)C(=O)N[C@@H](CC(N)=O)C(=O)N[C@@H]([C@@H](C)O)C(=O)N[C@@H](C)C(=O)N[C@@H]([C@@H](C)O)C(=O)N1)[C@@H](C)O)C(=O)N1CCC[C@H]1C(=O)N[C@@H](CO)C(=O)N[C@@H](CO)C(=O)N[C@H](C(=O)N[C@@H](CC(N)=O)C(=O)N[C@H](C(=O)NCC(=O)N[C@@H](CO)C(=O)N[C@@H](CCCNC(=N)N)C(=O)N[C@H](C(=O)N[C@@H](Cc1ccc(O)cc1)C(N)=O)[C@@H](C)O)C(C)C)[C@@H](C)O", "notes": "modifications are with respect to human amylin; also called compound 38"}, "B2": {"name": "N^α1-[(4S)-4-carboxy-4-(19-carboxynonadecanoylamino)butanoyl]-[Arg17,Pro21,Pro27]-h-amylin (peptide)", "peptide": "KCNTATCATQRLANFLRHSSPNFGAIPSSTNVGSNTY", "modifications": "C20 diacid-gGlu on the alpha amino group of the N-terminal residue (Lys 1); disulfide bridge between the two Cys residues; C-terminal amide", "notes": "analogue of human amylin; also called compound 21"}, "B3": {"name": "N^α1-[(4S)-4-carboxy-4-(19-carboxynonadecanoylamino)butanoyl]-[Arg17,Pro21,Pro27,Glu35]-h-amylin (peptide)", "peptide": "B2 peptide with N35E", "modifications": "C20 diacid-gGlu on the alpha amino group of the N-terminal residue (Lys 1); disulfide bridge between the two Cys residues; C-terminal amide", "notes": "analogue of human amylin; also called compound 23"}, "B4": {"name": "N^α1-[(4S)-4-carboxy-4-(19-carboxynonadecanoylamino)butanoyl]-[Arg17,Pro21,Pro27,Lys35]-h-amylin (peptide)", "peptide": "B2 peptide with N35K", "modifications": "C20 diacid-gGlu on the alpha amino group of the N-terminal residue (Lys 1); disulfide bridge between the two Cys residues; C-terminal amide", "notes": "analogue of human amylin; also called compound 34"}},
  "note": "Substitutions are numbered along the chain they refer to. Numbered stars: 1 amine (or outer) side, 2 acyl side, 3 side chain; on linkers, the order of the positions; unused ones are H or OH. Bridge positions count the residues as written; N and C are the ends. Side chains are listed from the residue outwards. Ends that are not written are not given here. * marks the point of attachment. C20 diacid = O=C(O)CCCCCCCCCCCCCCCCCCC(=O)*; γGlu = O=C(O)[C@H](CCC(=O)[*:2])N[*:1]; AEEA = NCCOCCOCC(=O)O",
  "data": [
    {"target": "T1, rat calcitonin receptor (rat, UniProt P32214 25-516)", "T1 construct": "whole, on cells; Membranes of BHK tk'ts 13 cells transiently transfected with the rat calcitonin receptor; also called rCTR; rat calcitonin (a) receptor", "T1 sequence (looked up)": "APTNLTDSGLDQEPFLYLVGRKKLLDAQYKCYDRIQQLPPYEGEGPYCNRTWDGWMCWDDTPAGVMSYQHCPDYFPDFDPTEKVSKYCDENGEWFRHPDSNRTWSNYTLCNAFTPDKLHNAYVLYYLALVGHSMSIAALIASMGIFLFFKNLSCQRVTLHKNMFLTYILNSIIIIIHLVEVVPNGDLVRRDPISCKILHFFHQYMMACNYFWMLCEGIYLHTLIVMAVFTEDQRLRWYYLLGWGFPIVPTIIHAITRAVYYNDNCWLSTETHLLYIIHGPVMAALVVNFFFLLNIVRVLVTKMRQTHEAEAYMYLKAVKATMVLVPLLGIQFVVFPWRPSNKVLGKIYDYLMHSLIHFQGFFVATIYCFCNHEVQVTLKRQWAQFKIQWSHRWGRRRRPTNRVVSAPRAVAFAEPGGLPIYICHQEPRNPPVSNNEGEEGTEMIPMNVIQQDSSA", "experiment": "SPA competition vs 125I-calcitonin, membranes with rat CTR (Assay VIII)", "units": {"IC50": "nM"}, "values": [
      {"binder": "B1", "IC50": 38}
    ]},
    {"target": "T2, rat calcitonin receptor (rat, UniProt P32214 25-516)", "T2 construct": "whole, on cells; membranes of transiently transfected BHK tk'ts 13 cells (Assay VIII); also called rCTR; rat calcitonin (a) receptor", "T2 sequence (looked up)": "T1 sequence (looked up)", "experiment": "IC50 on rat calcitonin receptor divided by IC50 on rat amylin receptor (SPA competition)", "values": [
      {"binder": "B2", "Ratio rCT/rAmylin binding": 18.8},
      {"binder": "B3", "Ratio rCT/rAmylin binding": 71.3},
      {"binder": "B4", "Ratio rCT/rAmylin binding": 52}
    ]},
    {"target": "T2, rat calcitonin receptor", "experiment": "SPA competition with 125I-calcitonin, membranes of BHK cells with rat calcitonin receptor (Assay VIII)", "units": {"IC50": "nM"}, "values": [
      {"binder": "B2", "IC50": 27.9},
      {"binder": "B3", "IC50": 79.9},
      {"binder": "B4", "IC50": 89.2}
    ]},
    {"target": "T3, rat amylin receptor (rat calcitonin receptor + rat RAMP 3) (rat, UniProt P32214 25-516; Q9JJ73 23-147)", "T3 construct": "whole, on cells; membranes of transiently transfected BHK tk'ts 13 cells (Assay VI); also called rAmylin-R; rat amylin 3(a) receptor", "T3 sequence (looked up) 1": "T1 sequence (looked up)", "T3 sequence (looked up) 2": "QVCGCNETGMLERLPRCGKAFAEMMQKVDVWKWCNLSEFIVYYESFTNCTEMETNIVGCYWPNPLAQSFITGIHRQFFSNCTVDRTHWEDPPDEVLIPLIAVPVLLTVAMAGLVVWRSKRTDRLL", "experiment": "SPA competition with 125I-rat amylin, membranes of BHK cells with rat calcitonin receptor + rat RAMP3 (Assay VI)", "units": {"IC50": "nM"}, "values": [
      {"binder": "B2", "IC50": 1.48},
      {"binder": "B3", "IC50": 1.12},
      {"binder": "B4", "IC50": 1.72}
    ]},
    {"target": "T4, rat amylin receptor (rat calcitonin receptor + rat RAMP 3) (rat, UniProt P32214 25-516; Q9JJ73 23-147)", "T4 construct": "whole, on cells; Membranes of BHK tk'ts 13 cells transiently transfected with the rat calcitonin receptor and rat RAMP 3; also called rAmylin-R; rat amylin 3(a) receptor", "T4 sequence (looked up) 1": "T1 sequence (looked up)", "T4 sequence (looked up) 2": "T3 sequence (looked up) 2", "experiment": "SPA competition vs 125I-rat amylin, membranes with rat CTR + rat RAMP3 (Assay VI)", "description": "The binding assay was performed using scintillation proximity assay (SPA) beads (RPNQ0001) from PerkinElmer and cell membranes from the Amylin 3(a)/CRE-luc cells (as described in Assay (II)) were used. Membranes were prepared in the following way; the cells were rinsed with PBS and incubated with Versene for approximately 5 min before harvesting. The cells were flushed with PBS and the cell-suspension was centrifuged for 5 min at 1000 rpm. Cells were homogenized (ultrathurrax) in a buffer containing 20 mM Na-HEPES and 10 mM EDTA (pH 7.4) and centrifuged at 20.000 rpm for 15 min. The resulting pellet was resuspended, homogenized and centrifuged (20.000 rpm, 15 min) in a buffer containing 20 mM Na-HEPES and 0.1 mM EDTA (pH 7.4, buffer 2). The resulting pellet was resuspended in buffer 2 and protein concentration was measured (BCA protein Assay, Pierce). The homogenate was kept cold during the whole procedure. The membranes were kept at −80° C. until use. The assay was performed in a 384 well Optiplate (PerkinElmer) in a total volume of 40 ul. Membranes were mixed with SPA beads. Final concentration of membranes 35 ng/μL final and SPA beads was 0.05 mg/well. Test-compounds were dissolved in DMSO and further diluted in assay buffer (50 mM Hepes, pH 7.4, 1 mM CaCl2, 5 mM MgCl₂, 0.1% OA and 0.02% Tween20). […] The final mixture was incubated with shaking at 400 rpm for 120 min at 25° C. prior to centrifugation (1500 rpm, 10 min). Samples were analyzed on TopCounter™ (Packard). The IC₅₀ was calculated using (one site binding competition analysis) GraphPad Prism5 as a measure of receptor affinity.\nCells were grown in DMEM with 10% FBS and 1% Pen/Strep. Approximately 48 hours after transfection, the cells were harvested and membranes were prepared.", "units": {"IC50": "nM"}, "values": [
      {"binder": "B1", "IC50": 0.383}
    ]},
    {"target": "T5, human calcitonin receptor (human, UniProt P30988 25-474)", "T5 construct": "whole, on cells; membranes of stably transfected BHK cells (Assay VII); also called hCTR; hCT", "T5 sequence (looked up)": "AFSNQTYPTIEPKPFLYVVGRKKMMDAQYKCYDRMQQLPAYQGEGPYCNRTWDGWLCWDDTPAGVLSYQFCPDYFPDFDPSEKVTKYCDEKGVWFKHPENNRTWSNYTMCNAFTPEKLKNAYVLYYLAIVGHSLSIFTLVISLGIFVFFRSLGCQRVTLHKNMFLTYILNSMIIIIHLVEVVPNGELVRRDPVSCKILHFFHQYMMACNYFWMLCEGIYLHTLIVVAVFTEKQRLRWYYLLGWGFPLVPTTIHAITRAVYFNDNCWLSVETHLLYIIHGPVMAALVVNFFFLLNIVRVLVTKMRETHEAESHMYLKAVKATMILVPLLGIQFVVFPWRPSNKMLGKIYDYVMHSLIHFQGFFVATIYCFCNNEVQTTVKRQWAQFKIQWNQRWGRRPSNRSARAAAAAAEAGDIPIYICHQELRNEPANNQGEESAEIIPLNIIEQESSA", "experiment": "IC50 on human calcitonin receptor divided by IC50 on human amylin receptor (SPA competition)", "description": "The resulting pellet was resuspended, homogenized and centrifuged (20.000 rpm, 15 min) in a buffer containing 20 mM Na-HEPES and 0.1 mM EDTA (pH 7.4, buffer 2). The resulting pellet was resuspended in buffer 2 and protein concentration was measured (BCA protein Assay, Pierce). The homogenate was kept cold during the whole procedure. The membranes were kept at −80° C. until use. The assay was performed in a 384 well Optiplate (PerkinElmer) in a total volume of 40 ul. Membranes were mixed with SPA beads. Final concentration of membranes 35 ng/μL final and SPA beads was 0.05 mg/well. Test-compounds were dissolved in DMSO and further diluted in assay buffer (50 mM Hepes, pH 7.4, 1 mM CaCl2, 5 mM MgCl₂, 0.1% OA and 0.02% Tween20). […] The final mixture was incubated with shaking at 400 rpm for 120 min at 25° C. prior to centrifugation (1500 rpm, 10 min). Samples were analyzed on TopCounter™ (Packard). The IC₅₀ was calculated using (one site binding competition analysis) GraphPad Prism5 as a measure of receptor affinity.\nMembranes were prepared in the following way; the cells were rinsed with PBS and incubated with Versene for approximately 5 min before harvesting. The cells were flushed with PBS and the cell-suspension was centrifuged for 5 min at 1000 rpm. Cells were homogenized (Ultrathurrax) in a buffer containing 20 mM Na-HEPES and 10 mM EDTA (pH 7.4) and centrifuged at 20.000 rpm for 15 min. The resulting pellet was resuspended, homogenized and centrifuged (20.000 rpm, 15 min) in a buffer containing 20 mM Na-HEPES and 0.1 mM EDTA (pH 7.4, buffer 2). The resulting pellet was resuspended in buffer 2 and protein concentration was measured (BCA protein Assay, Pierce). The homogenate was kept cold during the whole procedure. The membranes were kept at −80° C. until use. Assay was performed in a 384 well Optiplate (PerkinElmer) in a total volume of 40 ul. Membranes were mixed with SPA beads.", "values": [
      {"binder": "B2", "Ratio hCT/hAmylin binding": 24.4},
      {"binder": "B3", "Ratio hCT/hAmylin binding": 25},
      {"binder": "B4", "Ratio hCT/hAmylin binding": 64.4}
    ]}
  ]
}
